Experimental findings from US20200062840A1 (KINDRED BIOSCIENCES, published 2020) are described below.

As usually defined, the Kd is the constant that tells how readily two partners part at equilibrium. Low readings indicate higher affinity, high ones lower affinity. Usually koff stands for the rate constant with which the complex falls apart. Lower therefore signals slow dissociation.

Test [1] concerns the target biotinylated equine IL31 (equine). The test is described as follows: BLI, biotinylated equine IL31 immobilized to the sensor; preliminary measurement; lower end of the range; preliminary measurement. In general terms: BLI is a label-free optical method that tracks binding on a fibre tip over time.
Test [2] has the same target. The test is described as follows: BLI, biotinylated equine IL31 immobilized to the sensor; preliminary measurement; upper end of the range; preliminary measurement.
Test [3] addresses T1, canine IL31 with C-terminal polyHis tag (canine, biotinylated at primary amine groups (NHS-LC-Biotin) or at glycan groups (Biotin-LC-Hydrazide)).
T1 construct: also called biotinylated canine IL31; canine IL31 (amine-conjugated-biotin); not shown: C-terminal poly-His tag
T1 chain: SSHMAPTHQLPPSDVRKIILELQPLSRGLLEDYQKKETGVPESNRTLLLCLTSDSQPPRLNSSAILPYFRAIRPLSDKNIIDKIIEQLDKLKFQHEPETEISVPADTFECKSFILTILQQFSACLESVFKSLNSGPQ
In words: BLI (Octet), canine IL31 (glycan-conjugated-biotin) on streptavidin tips, antibody at 100 nM, 2:1 model; canine IL31 (glycan-conjugated-biotin). As to the method:
(§1) The binding analysis was performed using a biosensor Octet as follows. Briefly, canine IL31 was biotinylated at primary amine groups using EZ-Link™ NHS-LC-Biotin (Thermo Scientific, Catalog No. 21336) or at glycan groups using EZ-Link™ Biotin-LC-Hydrazide (ThermoFisher Scientific, Catalog No. 21340) according to the manufacturer's instructions. The free unreacted biotin was removed from biotinylated IL31 by extensive dialysis. Biotinylated canine IL31 was captured on streptavidin sensor tips. The association of four different concentrations (400, 200, 66.6, and 33 nM) of chimeric and caninized M14 antibody and human and canine IL31 (amine-conjugated-biotin) and the association of 100 nM of caninized M14 antibody and canine IL31 (glycan-conjugated-biotin) was monitored for ninety seconds. Dissociation was monitored for 600 seconds. A buffer only blank curve was subtracted to correct for any drift. The data were fit to a 2:1 binding model using ForteBio™ data analysis software to determine the kₒₙ, koff, and the Kd. The buffer for dilutions and all binding steps was: 20 mM phosphate, 150 mM NaCl, pH 7.2.

Test [4] has as its target T1, canine IL31 with C-terminal polyHis tag. In words: BLI (Octet), canine IL31 (amine-conjugated-biotin) on streptavidin tips, antibody at 400, 200, 66.6 and 33 nM, 2:1 model; canine IL31 (amine-conjugated-biotin). As to the method: as §1

Chain of biotinylated equine IL31 (equine) (chain, as listed by the source limits assumed, form in doubt): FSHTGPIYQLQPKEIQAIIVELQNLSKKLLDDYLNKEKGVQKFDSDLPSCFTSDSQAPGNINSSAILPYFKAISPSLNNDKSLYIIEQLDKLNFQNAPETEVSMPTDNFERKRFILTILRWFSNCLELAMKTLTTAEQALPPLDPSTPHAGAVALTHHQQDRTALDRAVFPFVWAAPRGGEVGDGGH

B1: mouse monoclonal antibody M14 (antibody, V domains shown)
VH: EVQLQESGPSLVKPSQTLSLTCSVTGDSITSGYWNWIRKFPGNKLEYMGYISYSGITDYNPSLKSRISITRDTSKNQYYLQLNSVTTEDTATYYCARYGNYGYAMDYWGQGTSVTVSS
VL: DIVLTQSPASLAVSLGQRATISCRASESVDTYGNSFMHWYQQKSGQSPKLLIYRASNLESGIPARFGGSGSRTDFTLTIDPVEADDVATYYCQQSYEDPWTFGGGTKLEIK
With B1, the Kd is more than 10 nM in test [1] and less than 50 nM in test [2].

B2: caninized M14 IgG-B (antibody, V domains shown)
VH: EVQLVESGPSLVKPGGSLRLTCSVTGDSITSGYWNWIRKFPGNKLEYMGYISYSGITDYNPSLKSRITISRDTSKNQYYLQLNSVTTEDTATYYCARYGNYGYAMDYWGQGTLVTVSS
VL: DIVMTQSPASLSVSLGQRATISCRASESVDTYGNSFMHWYQQKPGQSPKLLIYRASNLESGIPARFGGSGSGTDFTLTIDPVQADDVATYYCQQSYEDPWTFGGGTKLEIKR
notes: canine IgG-B heavy chain and canine light chain constant region; also called caninized M14 antibody
B2: in test [3], the dissociation constant Kd was less than 0.001 nM and the koff is less than 1e-07 s⁻¹. In test [4], this molecule came in with a Kd of less than 0.01 nM.
